US20260029420A1, “ANTI-CB2 ANTIBODIES AND THEIR USE IN A FLOW CYTOMETRY ASSAY TO MEASURE CELL SURFACE CB2 EXPRESSION” (Hoffmann-La Roche Inc., priority 2022, published 2026)

Legend:
Format in all cases: binding
CHODukx CRE hCB2 Cl.90 [1] = target: T1, CHODukx CRE hCB2 Cl.90 (Homo sapiens, UniProt P34972); experiment: Western blot of cell lysates; parameters: key: “−” no signal; “+”-“+++++” signal intensity; “+”-“+++++” signal intensity; “+”-“+++++” signal intensity; “+”-“+++++” signal intensity; “+”-“+++++” signal intensity; settings: CHODukx CRE hCB2 Cl.90 lysate
T1 construct: expressed in transfected cells
Procedure: (§1) The positive clones (Table 1) were further characterized by immunofluorescence (IF; Table 2), Western Blot (Table 3, 1) and Immune precipitation (Table 4, 2) on full length hCB2, hCB1, mCB2 stable-transfected CHO-cell lines in addition to the 2 pANITA constructs.
(§2) For Western blot analysis, cells were collected using enzyme free dissociation buffer (Cell dissociation buffer enzyme-free Hanks'-based, Gibco), and washed two times with PBS. To prepare cell lysate, 10^6 cells were lysed with 0.1 ml of lysis buffer (1% NP40, 10% glycerol, 2 mM EDTA, 137 mM NaCl, 20 mM TrisHCl, pH8, Protease Inhibitors) for 10 min on ice. The lysate was cleared by centrifugation at 20′000 g for 5 min. For SDS-PAGE cell lysate was resolved on precast 4-12% gradient gels (NuPAGE® Novex 4-12% Bis-Tris Gel, Invitrogen) with MES running buffer according to the manufacturer's directions. The separation of proteins was visualized by Colloidal Blue staining. The proteins were electrophoretically transferred to nitrocellulose membrane using a dry-blotting system (iBlot, Invitrogen). After blocking the membrane for 16 h in blocking buffer (5% Milk in PBS) at 4° C., specific proteins were detected with appropriate dilutions of mAbs in blocking buffer for 1 h at approximately 20° C. […]

CHO-A2 mCB2 [2] = target: T2, CHO-A2 mCB2 (Mus musculus, UniProt P47936); experiment: Western blot of cell lysates; parameters: key: “−” no signal; “+”-“+++++” signal intensity; “+”-“+++++” signal intensity; “+”-“+++++” signal intensity; “+”-“+++++” signal intensity; “+”-“+++++” signal intensity; settings: CHO-A2 mCB2 lysate
T2 construct: expressed in transfected cells
Procedure: as §1, §2

pANITA3.1 hCB2 (JB175) [3] = target: T3, pANITA3.1 hCB2 (JB175) (Homo sapiens, UniProt P34972); experiment: Immunofluorescence on methanol-fixed transfected cells; parameters: key: “−” no fluorescence detected; “+”-“++++” intensity of fluorescent signal; “+”-“++++” intensity of fluorescent signal; “+”-“++++” intensity of fluorescent signal; “+”-“++++” intensity of fluorescent signal; settings: pANITA3.1 hCB2 (JB175) cells
T3 construct: expressed in transfected cells; host or cells: HEK293
Procedure: as §1
(§3) For IF analysis, methanol-fixed cells were incubated for 20 min in a humid chamber at 37° C. with the respective hCB2 and mCB2 clones. After rinsing twice and washing for 15 min in PBS, 125 μg/ml FITC-conjugated […] anti-mouse IgG antibodies (RAM/IgG (H+L)/FITC, Nordic
(§4) Immunological Laboratories) diluted in PBS was added and incubated for 20 min in a humid chamber at 37° C. Cells were rinsed twice and washed for 15 min in PBS, mounted with mounting solution (50% PBS 50% glycerol) and covered with a coverslip. Staining was assessed by fluorescence microscopy on a Leica CTR500 fluorescence microscope and a Leica DFC300 FX digital camera.

pANITA3.1 mCB2 (JB176) [4] = target: T4, pANITA3.1 mCB2 (JB176) (Mus musculus, UniProt P47936); experiment: as above; parameters: key: “−” no fluorescence detected; “+”-“++++” intensity of fluorescent signal; “+”-“++++” intensity of fluorescent signal; “+”-“++++” intensity of fluorescent signal; “+”-“++++” intensity of fluorescent signal; settings: pANITA3.1 mCB2 (JB176) cells
T4 construct: expressed in transfected cells; host or cells: HEK293
Procedure: as §1, §3, §4

CHODukx CRE hCB2 Cl.90 [5] = target: T1, CHODukx CRE hCB2 Cl.90; experiment: Immunoprecipitation from whole cell lysates; parameters: key: “−” no signal; “+”-“++++” signal intensity; “+”-“++++” signal intensity; “+”-“++++” signal intensity; “+”-“++++” signal intensity; settings: CHODukx CRE hCB2 Cl.90 lysate
Procedure: as §1
(§5) For immunoprecipitation (IP), whole cell lysates were incubated with the respective antibodies. IP was performed according to established protocols and subsequent western blot as described herein above.

pANITA3.1 mCB2 (JB176) [6] = target: T4, pANITA3.1 mCB2 (JB176); experiment: Immunoprecipitation from whole cell lysates; parameters: key to Immunoprecipitation signal intensity: “−” no signal; “+”-“+++++” signal intensity; “+”-“+++++” signal intensity; “+”-“+++++” signal intensity; “+”-“+++++” signal intensity; “+”-“+++++” signal intensity
Procedure: as §1, §5

CHO-A2 mCB2 [7] = target: T2, CHO-A2 mCB2; experiment: Immunofluorescence on methanol-fixed transfected cells; parameters: key to immunofluorescence signal intensity: “−” no fluorescence detected; “+”-“++++” intensity of fluorescent signal; “+”-“++++” intensity of fluorescent signal; “+”-“++++” intensity of fluorescent signal; “+”-“++++” intensity of fluorescent signal
Procedure: as §1, §3, §4

CHODukx negative [8] = experiment: Western blot of cell lysates, negative control; parameters: key: “−” no signal; “+”-“+++++” signal intensity; “+”-“+++++” signal intensity; “+”-“+++++” signal intensity; “+”-“+++++” signal intensity; “+”-“+++++” signal intensity; settings: CHODukx negative lysate
Procedure: as §1, §2

pANITA3.1 hCB2 (JB175) [9] = target: T3, pANITA3.1 hCB2 (JB175); experiment: Immunoprecipitation from whole cell lysates; parameters: key to Immunoprecipitation signal intensity: “−” no signal; “+”-“++++” signal intensity; “+”-“++++” signal intensity; “+”-“++++” signal intensity; “+”-“++++” signal intensity
Procedure: as §1, §5

CHODukx negative [10] = experiment: Immunoprecipitation from whole cell lysates, negative control; parameters: key: “−” no signal; “+”-“+++++” signal intensity; “+”-“+++++” signal intensity; “+”-“+++++” signal intensity; “+”-“+++++” signal intensity; “+”-“+++++” signal intensity; settings: CHODukx negative lysate
Procedure: as §1, §5

T4 sequence (P47936 with tags, fused parts or gaps): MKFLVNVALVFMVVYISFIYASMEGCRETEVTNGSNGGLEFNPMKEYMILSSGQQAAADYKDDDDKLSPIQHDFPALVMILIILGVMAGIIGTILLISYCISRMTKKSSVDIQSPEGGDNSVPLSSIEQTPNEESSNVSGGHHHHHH
T3 sequence (P34972 with tags, fused parts or gaps): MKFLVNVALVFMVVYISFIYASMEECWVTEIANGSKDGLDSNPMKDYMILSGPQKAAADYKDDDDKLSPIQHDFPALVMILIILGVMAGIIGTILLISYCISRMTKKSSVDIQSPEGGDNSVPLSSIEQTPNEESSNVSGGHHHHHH
T2 sequence (P47936 whole entry): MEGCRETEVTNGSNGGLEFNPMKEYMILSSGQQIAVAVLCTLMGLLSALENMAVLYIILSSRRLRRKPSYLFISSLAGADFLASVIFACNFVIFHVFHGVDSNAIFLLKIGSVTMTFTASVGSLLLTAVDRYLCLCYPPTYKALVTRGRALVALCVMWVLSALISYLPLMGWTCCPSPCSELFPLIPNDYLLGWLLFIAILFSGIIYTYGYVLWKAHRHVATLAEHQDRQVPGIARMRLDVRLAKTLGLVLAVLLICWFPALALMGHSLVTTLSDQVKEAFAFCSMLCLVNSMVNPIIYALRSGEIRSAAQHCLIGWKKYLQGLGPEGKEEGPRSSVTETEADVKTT
T1 sequence (P34972 whole entry): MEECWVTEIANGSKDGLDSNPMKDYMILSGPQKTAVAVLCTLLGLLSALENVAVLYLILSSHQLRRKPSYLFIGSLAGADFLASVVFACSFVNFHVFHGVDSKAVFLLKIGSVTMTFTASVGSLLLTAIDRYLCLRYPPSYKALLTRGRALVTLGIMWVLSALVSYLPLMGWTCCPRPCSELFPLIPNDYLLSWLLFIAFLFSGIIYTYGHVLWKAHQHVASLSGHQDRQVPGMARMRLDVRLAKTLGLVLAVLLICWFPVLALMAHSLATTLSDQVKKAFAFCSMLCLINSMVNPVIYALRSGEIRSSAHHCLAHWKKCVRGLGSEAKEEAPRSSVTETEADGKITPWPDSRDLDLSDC

B1: hCB2-1/622: murine IgG3 monoclonal anti-human CB2 antibody, VH SEQ ID NO: 1, VL SEQ ID NO: 2, HC SEQ ID NO: 3, LC SEQ ID NO: 4 (antibody)
heavy: EVQLQQSGPELVKPGASVKISCKTSGYTFTEYTMHWVRQSHGKSLEWIGGIDRYNGDTYYNQKFKDKATLTVDRSSSTAYMELRSLTSEDSAVYFCARNGAMDYWGQGISVTVSSATTTAPSVYPLVPGCSDTSGSSVTLGCLVKGYFPEPVTVKWNYGALSSGVRTVSSVLQSGFYSLSSLVTVPSSTWPSQTVICNVAHPASKTELIKRIEPRIPKPSTPPGSSCPPGNILGGPSVFIFPPKPKDALMISLTPKVTCVVVDVSEDDPDVHVSWFVDNKEVHTAWTQPREAQYNSTFRVVSALPIQHQDWMRGKEFKCKVNNKALPAPIERTISKPKGRAQTPQVYTIPPPREQMSKKKVSLTCLVTNFFSEAISVEWERNGELEQDYKNTPPILDSDGTYFLYSKLTVDTDSWLQGEIFTCSVVHEALHNHHTQKNLSRSPGK
light: DVVMTQTPLSLPVSLGDQASISCRSSQSLVHSNGNTYLHWFLQKPGQSPKLLIYKVSIRFSGVPDRFSGSGSGTDFTLKISRVEAEDLGVYFCSQSTHVPPLTFGAGTKLELKRADAAPTVSIFPPSSEQLTSGGASVVCFLNNFYPKDINVKWKIDGSERQNGVLNSWTDQDSKDSTYSMSSTLTLTKDEYERHNSYTCEATHKTSTSPIVKSFNRNEC
- Western Blot signal intensity (CHODukx CRE hCB2 Cl.90 [1]): −
- Western Blot signal intensity (CHO-A2 mCB2 [2]): −
- immunofluorescence signal intensity (pANITA3.1 hCB2 (JB175) [3]): ++++
- immunofluorescence signal intensity (pANITA3.1 mCB2 (JB176) [4]): −
- Immunoprecipitation signal intensity (CHODukx CRE hCB2 Cl.90 [5]): +
- immunoprecipitation cross reactivity (pANITA3.1 mCB2 (JB176) [6]; mCB2): no cross reactivity
- Immunoprecipitation signal intensity (pANITA3.1 mCB2 (JB176) [6]; pANITA3.1 mCB2 (JB176) lysate): −
- immunofluorescence signal intensity (CHO-A2 mCB2 [7]; CHO-A2 mCB2 cells): −
- immunofluorescence staining (CHO-A2 mCB2 [7]; cells expressing mouse CB2): no staining
- Western Blot signal intensity (CHODukx negative [8]): −
- immunoprecipitation binding (pANITA3.1 hCB2 (JB175) [9]; hCB2): specifically binds
- Immunoprecipitation signal intensity (pANITA3.1 hCB2 (JB175) [9]; pANITA3.1 hCB2 (JB175) lysate): ++++
- Immunoprecipitation signal intensity (CHODukx negative [10]): −
